Results on 5 molecules are retold here after publication PMC4814300 (Cell reports, 2016).

T1: Ven-SH3 (Gads, aa.256-322) (mouse, UniProt O89100 256-322)
T1 sequence (looked up): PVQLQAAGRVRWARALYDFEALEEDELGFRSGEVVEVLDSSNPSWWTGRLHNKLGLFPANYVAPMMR

B1: Cer-Gab1, aa.515-527 (peptide, UniProt Q13480 515-527, looked up)
chain: EPPPVDRNLKPDR
B2: Cer-SLP-76, aa.231-243 (peptide, UniProt Q13094 231-243, looked up)
chain: PAPSIDRSTKPPL
B3: Cer-SLP-76 (K240R), aa.231-243 (peptide, UniProt Q13094 231-243, looked up)
chain: PAPSIDRSTRPPL
B4: Cer-SLP-76 (D236K), aa.231-243 (peptide, UniProt Q13094 231-243, looked up)
chain: PAPSIKRSTKPPL
B5: Cer-USP8, aa.403-415 (peptide, UniProt P40818 403-415, looked up)
chain: NVPQIDRTKKPAV

The target of the assay is T1, Ven-SH3 (Gads, aa.256-322). Description: FRET or BRET. For orientation: In BRET a luciferase serves as donor, and the signal depends on an acceptor being close.
One may read the Kd as the equilibrium constant for the complex coming apart. Read a low Kd as higher affinity. B1 showed a Kd of 1 µM.

B2 displayed a Kd of 0.8 µM.

Molecule B3 gave a Kd of 24 µM.

For the molecule B4, binding was characterised by a dissociation constant (Kd) of 7 µM.

In the case of B5, binding was put at a Kd of 4 µM.
